From the DeepSol protein solubility set

Assay: soluble on expression in E. coli; label from the status in PepcDB or PDB records

Sequence	soluble on expression in E. coli
MDVTRQIELAHRYMKDFHKSDYSGHDVAHVERVTSLAQTISKCEQQGEYLIITLSALLHDVIDDKLTNKANALDRLKTFLKNIRVSSDQQQKIIYIIQHLSYRNGQNNHVDLPIEGQIVRDADRLDAIGAIGIARAFQFSGHFNEPMWTESPHSDIPNIETITNLEPSAIRHFYDKLLKLKDLMHTETGRKLARERHAFMEQFLNQFYKEWHILEHHHHHH	soluble
MGSDKIHHHHHHMFQNKKHRIALISIDGDPAVEIGQEEAGGQNVYVRQVGYALAQQGWQVDMFTRRSNSEQSAIAQHGPNCRTIRLKAGPAEFIGRDNLFDHLPEFIEEFQKFQQRQGFHYSLIHTNYWLSSWVGMELKKQQSLIQVHTYHSLGAVKYRSIGDVPVIAAQRLAVEKACLETIDCVVATSPQEQKHMRVLVSSKGNIEMIPCGTDTDKFGGIQRTAAREKLGIAPDAKIVLYVGRFDRRKGIETLVRAVAKSSLRGEANLQLVIGGGSRPGQSDAIERDRIASIVTELGLENCTTFAGRLDETVLPFYYAAADVCVVPSHYEPFGLVAIEAMASQTPVVASDVGGLQFTVVPEVTGLLAPPKDEVAFAAAIDRILINPTWRDQLGEAARQRTEIAFSWYSVGFRLTQLYTRLLAQTASNTRPRIAA	not soluble
MIFAAIADIHGNCAALEAVLEDIAKLGIKDIVNLGDCFSGPLEAGFTGDVLVGNWIPSIRGNHDRELIERAPENMGSWEKPAHAQLTAAHLDWLHTLPFSMVFRDVAYCCHGSPLGDLDYWLETLSPEGVLKLRPLAEIEERAEGITQPLMLCGHTHIPRAVQLSDGRLIVNPGSVGCPGWKDDTPFDHHVEAGHALATYAVLEETGRGWQVYFRNIRYDNLAMSEMARVNGIPYLADALTNGWLKR	not soluble
MKAIILGIQNILEVLLEDIGILKMESIFLHTNITNIPHSVLYVSLSYYIINPCTSASSNLDDSFS	soluble
MSLKDLQKYQGIIPAFYACYDDKGDICPERVKALTNYFIDKGVQGLYVNGSSGECIYQSVADRKLVLENVMSVAKGKLTVIAHVACNNTKDSVELAMHAEAIGVDAIAAIPPIYFRLPEYAIADYWNTISQAAPQTDFIIYNIPQLAGVALTSDLYRKMLQNPQVIGVKNSSMPVQDIQNFVAIGGENHIVFNGPDEQFLGGRLMGAAAGIGGTYGVMPELYLTLNQLIVDKDLEKARELQFTINDIITKLCSGHGNMYAVIKAVLEINEQLTIGSVRLPLASVTEEDKPIIKEAAEEGHHHHHH	soluble
MQRSLQIFCIMSAIAMAYSQGSRDDNQSAKRNDFSRDIMSFGKRSGNTADLYDRRIMAFGKRQPSYDRDIMSFGKRSAPSDFSRDIMSFGKRSSSMYDRDIMSFGKRSPVDYDRPIMAFGKRAEDYERQIMAFGRRK	not soluble
MAHHHHHHMTHMGRAADGYQRLGNNYPQVTPSSHFAAASPDPVLATPIQTRPLQGNPFHPLLWNGSATSSTGAAGVQASLSRKSRTRLTSGVTAGSSSGPLSSTLSLSTPLSSCASAAASGEGRFQRRVSRDRFGACSTPTSSSTTAQVLQLQRPAQSPMPPLSSSPPASVGLTAAAARGAVTPANLGRERKVAAVNYNALFQQELQQQQRQGSDTGAWPTPSPSPPSGALQYAQLPPSASADVHGTGAHSGSGEGVSEALSSSVTASSVQAGTAEGPLPPDVRRIIAQSCTSSSSSSGADTNAIIDAAEQQARRLISTGRRVKVYREELTTAEEERNDLSAAVEERRLVRSVLQSEVDDINARIQALLQERALAEAQLHAQDDAAAREARKLTEAQDRVTVLRKTIEGIVEETSAARLMLRQIVPSLHIENYY	not soluble
MGSDKIHHHHHHMFKNTFQSGFLSILYSIGSKPLQIWDKKVRNGHIKRITDNDIQSLVLEIEGTNVSTTYITCPADPKKTLGIKLPFLVMIIKNLKKYFTFEVQVLDDKNVRRRFRASNYQSTTRVKPFICTMPMRLDDGWNQIQFNLLDFTRRAYGTNYIETLRVQIHANCRIRRVYFSDRLYSEDELPAEFKLYLPVQNKAKQ	not soluble
MSLSHNSSLPPFTASGFAEDQGAVRIWRKDSGDNVHFLAVFSPWRSGDTTTREYRWQGDNLTLININVYSKPPVNIRARFDDRGDLSFMQRESDGEKQQLSNDQIDLYRYRADQIRQISDALRQGRVVLRQGRWHAMEQTVTTCEGQTIKPDLDSQAIAHIERRQSRSSVDVSVAWLEAPEGSQLLLVANSDFCRWQPNEKTFEGHHHHHH	not soluble
MSLTECFLSDQEIRKLNRDLRILIAANGTLTRVLNIVADDEVIVQIVKQRIHDVSPKLSEFEQLGQVGVGRVLQRYIILKGRNSEHLFVAAESLIAIDRLPAAIITRLTQTNDPLGEVMAASHIETFKEEAKVWVGDLPGWLALHGYQNSRKRAVARRYRVISGGQPIMVVTEHFLRSVFRDAPHEEPDRWQFSNAITLAREGHHHHHH	soluble
DALHDQASALFKPIPEQVTELRGQPISEQQRELGKKLFFDPRLSRSHVLSCNTCHNVGTGGADNVPTSVGHGWQKGPRNSPTVFNAVFNAAQFWDGRAKDLGEQAKGPIQNSVEMHSTPQLVEQTLGSIPEYVDAFRKAFPKAGKPVSFDNMALAIEAYEATLVTPDSPFDLYLKGDDKALDAQQKKGLKAFMDSGCSACHNGINLGGQAYFPFGLVKKPDASVLPSGDKGRFAVTKTQSDEYVFRAAPLRNVALTAPYFHSGQVWELKDAVAIMGNAQLGKQLAPDDVENIVAFLHSLSGKQPRVEYPLLPASTETTPRPAE	soluble
MTTAVTQAIIDGFFDASNGDPFATLGMHETEQGIEIRTLLPDANRMVVIERESGKEITELDCVDERGFFVGVIPNCRQFFAYQLQVFWGNEAQIIEDPYRFHPMID	not soluble
MGSDKIHHHHHHMTQFWRDPTLPFVESRRATDSRACYRPHSHPTLSIGVVDRGQSQFQCQRRREWLTPGCLVSVPAGVVHDCNPLPDQPWSYQMLYLEPAWVSEVLDEASAETDAAPTLPSTVFIARDVAPYQAFCRLNALLFSSAPRADKEAGLIEFLGSRLWCHGDAMAVHWPNSSDLDDLQRHLLECLERPPSLEVLARDHGLSRYQVIRLFRRETGLTPHAWLLDRRIQQARRRLCQGVELAELAQELGFADQGHFQRAFKARVAATPGRYRST	not soluble
PAVKPVIGEVTPNSIVAEAGIESGMELKAVSGIKTPDWESVNMGLISHIGDDAMTLTLTSDSEVGAEVTKTLDLRDWKFDPETESAMHSLGFAPYTPEIYRVIKQVSEDGAAAKAGVLPEDEIIAIGGEPINDWKQVVDAVRSNPNTPIELTVLRRGIEQSLTLTPDSRELANKQVVGFAGIAPEVAEWPESYRFELQFGVFESIGKAVDKTGQVIGLTVSMLKKLIVGDVGLNNLSGPISIAKGAGATADYGL	not soluble
MSLVIGYMESNKNNSKWKDILMDGEILQIENIFNGSHNKKNNGLIIFKIKDKLGNVNKLTFVSKSADMSIQVEKAERLIKKGSYYRHFKGNYYKVLYIAENSEDKEKVVVYQAMYGEKKVYVRPFKMFISKVDHCKYPEIEQEYRFMSISELENQFGTSVVASWNMQNIYVDHTIEGHHHHHH	not soluble
MGSDKIHHHHHHLQKYLSILRNSPFFKGLADNEILSILHCVNATTISKKRDSYIFRAGDITEVMGIVVSGCVLIIQEDIWGHRNILSKCHAGDFFGEPYAASQRAVLNISVVADEDCEIILLNVKRLLITCPTACEHHQKLIRNLVSVLANKILILNDKITHVGKRTTRDKLLSYLSAESIRHSSLSFDIPFDRQQLADYLCIDRAAMSTEISKLQKEGFIKTNRNHFELQLSIIKKKNYTI	not soluble
MGSHHHHHHDITSLYKKAGSAAAVLEENLYFGGSFTMDMAADIASDHFISRRVDIGRITLNVREKGSGPLMLFFHGITSNSAVFEPLMIRLSDRFTTIAVDQRGHGLSDKPETGYEANDYADDIAGLIRTLARGHAILVGHSLGARNSVTAAAKYPDLVRSVVAIDFTPYIETEALDALEARVNAGSQLFEDIKAVEAYLAGRYPNIPADAIRIRAESGYQPVDGGLRPLASSAAMAQTARGLRSDLVPAYRDVTKPVLIVRGESSKLVSAAALAKTSRLRPDLPVVVVPGADHYVNEVSPEITLKAITNFIDA	soluble
MSSPYILVLYYSRHGATAEMARQIARGVEQGGFEARVRTVPAVSTECEAVAPDIPAEGALYATLEDLKNCAGLALGSPTRFGNMASPLKYFLDGTSSLWLTGSLVGKPAAVFTSTASLHGGQETTQLSMLLPLLHHGMLVLGIPYSEPALLETRGGGTPYGASHFAGADGKRSLDEHELTLCRALGKRLAETAGKLGS	soluble
MRLTEGIVVDSVLTFGKLRFSALRREVRKQNEDGTVSNEVKERTYNLKSSAQGRMIQVSIPANVPLREFAYDAEVELVNPIVDTVANYVFREGTTVNWFIKADDLVLKRQPNQGNSTNQIEGKK	not soluble
MSLKAAVLKNYGTLPEYQEFPEPKPKNYDELLVTPIASSVKRLDVIRAAGKHYTKFSELPAVMGMDGVAKLDNNSRVYAMGITGMMAEKALIDQRTMTVLPDGLDAGLAAALPNALIGSDLALLERGKIKTGDVVFINGATGLTGSLAVQMAKLRGAKRVIVTGRDPIKLQHLKDLGAYLTITTNQPDNSFVKELINAYNQSPFNLILDYLWGHPAELIIEALRRIRFLNSLKYISIGSLAGEGISVPSQLLRSKDLELIGSGIGSLDPNAVQVYMQKHLTEIFDYANQGKLSMELKSFPLDKISSAWISAPAVITIEGHHHHHH	not soluble
MGSDKIHHHHHHMGQKVHPRGFRLGLSADWQAKWFNEKNYKEWLLEDEEIRKIIKNKYYHAGISEIYVERPDAERINITVKTARPGIIIGRKGSEITSLREELERKFNRRVVINIEEIKTPELDAQLVAESIASRIEKRASYKVAMKRAIMNAMRKGAQGIKVMVAGRLGGAEIARREWYLRGRLPLQKIKAIIDYGTATAWTKYGTIGIKVWIYKGDADI	not soluble
MSEQSFSNANKGSETLNGSAASFVSHKRFYDDTNFPKGFKRSGDFTSKEAELLELHGHAMKNLAEGKTLPVTADEAQFVEVIKGNIAPSSLLEHIWLKYRKLARGKPFYAVVGTVHLPATKPEVEVEPEAAFDVDVEIEDDVQDEAEPEDKA	soluble
MLEAKNLTCIRDDRCLFQQLSFCIAPGEIVQIEGPNGAGKTSLLRILAGLAEADEGQVNWRDKNIRRDRAKYHQDLLFLGHQPGIKSVLTPFENLLFYQSVFQKVDSAAIWQALAQVGLVGYEDLPVSQLSAGQQRRVALARLWLSPAPLWILDEPLTAIDKQGVSTLLALFVQHAAKGGMVLLTTHQDLGAVSHNVRKICLANTQEKSCLSACCAVN	not soluble
MKIALIGITGRVGSRLADELLRRGHHVTGIARDPASVRPQPNLTARQGDAAVPEDLAPILAGHDAVISAARFVSLDAKPLLAAIRQAGVPRLLVVGGAGSLQVAPGVALIDTPEFPDAYKPEARAGVVFLDTLRREQEVEWTFLSPSALFEPGERTGEFRLGADLLLADDEGKSWISMEDYAIALVDELETPRHARRRFTVGYLEHHHHHH	not soluble
MEANMPKRKEPGRSLRIKVISMGNAEVGKSCIIKRYCEKRFVSKYLATIGIDYGVTKVHVRDREIKVNIFDMAGHPFFYEVRNEFYKDTQGVILVYDVGQKDSFDALDAWLAEMKQELGPHGNMENIIFVVCANKIDCTKHRCVDESEGRLWAESKGFLYFETSAQTGEGINEMFQTFYISIVDLCENGGKRPTTNSSASFTKEQADAIRRIRNSKDSWDMLGVKPGASRDEVNKAYRKLAVLLHPDKCVAPGSEDAFKAVVNARTALLKNIK	soluble
